Source: patent US6835382B2, “Ii peptide therapeutics to enhance antigen presentation” (University of Massachusetts, priority 1996, dated 2004)
Non-standard residues stand in square brackets, D forms with d. hArg = N=C(N)NCCCC[C@H](N)C(=O)O; Cit = NC(=O)NCCC[C@H](N)C(=O)O

Target: T1, murine E^d MHC class II allele (Mus musculus, UniProt P01904+P01915)
T1 sequence (P01904 26-255): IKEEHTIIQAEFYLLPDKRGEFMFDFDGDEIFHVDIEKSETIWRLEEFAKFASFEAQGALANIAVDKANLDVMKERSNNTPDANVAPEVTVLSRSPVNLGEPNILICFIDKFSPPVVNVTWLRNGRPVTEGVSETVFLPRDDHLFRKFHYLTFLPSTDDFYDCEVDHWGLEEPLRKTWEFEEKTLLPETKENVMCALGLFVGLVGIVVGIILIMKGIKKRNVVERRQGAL
T1 sequence (P01915 27-264 limits assumed): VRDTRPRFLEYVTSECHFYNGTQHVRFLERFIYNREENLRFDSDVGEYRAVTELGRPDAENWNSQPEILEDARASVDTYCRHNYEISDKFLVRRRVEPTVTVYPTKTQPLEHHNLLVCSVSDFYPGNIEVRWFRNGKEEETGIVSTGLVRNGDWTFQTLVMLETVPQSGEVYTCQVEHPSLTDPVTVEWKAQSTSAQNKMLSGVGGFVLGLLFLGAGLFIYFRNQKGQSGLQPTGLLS
Assay: processed antigen assay, E^d allele (APC pulsed with native HEL)
Type: cell-based
Design: The A20 and CH27 B cell lymphoma lines express H-2^d and H-2^k alleles, respectively; endogenous in cells; host or cells: A20 B cell lymphoma (mitomycin C-treated or paraformaldehyde-fixed)
Conditions: AE peptide 64 μM; for T cell response relative to baseline (None = 1.00), E^d: Table 31; for T cell response relative to baseline (None = 1.0), 5 μM HEL E^d, first value / T cell response relative to baseline (None = 1.0), 5 μM HEL E^d, second value / T cell response relative to baseline (None = 1.0), 10 μM HEL E^d, first value / T cell response relative to baseline (None = 1.0), 10 μM HEL E^d, second value / T cell response relative to baseline (None = 1.0), 20 μM HEL E^d, first value / T cell response relative to baseline (None = 1.0), 20 μM HEL E^d, second value: Table 29; for T cell response relative to baseline (None = 1.0), 5 μM HEL E^d, first value / T cell response relative to baseline (None = 1.0), 5 μM HEL E^d, second value: native HEL prepulse 5 μM; for T cell response relative to baseline (None = 1.0), 5 μM HEL E^d, first value / T cell response relative to baseline (None = 1.0), 10 μM HEL E^d, first value / T cell response relative to baseline (None = 1.0), 20 μM HEL E^d, first value: supernatant dilution 1:4 (first value); for T cell response relative to baseline (None = 1.0), 5 μM HEL E^d, second value / T cell response relative to baseline (None = 1.0), 10 μM HEL E^d, second value / T cell response relative to baseline (None = 1.0), 20 μM HEL E^d, second value: supernatant dilution 1:8 (second value)
Method: In a third type of assay, the “processed antigen assay”, certain of the AE101 series of peptides inhibit stimulation of specific T cell hybridomas by antigenic peptides which are derived from the endogenous processing of a native protein antigen. This assay, which is related to the peptide prepulse assay, is performed by incubating APC with native protein antigen for 8 h, after which the pulsed APC are washed and treated with mitomycin C. Those pulsed APC are then combined with AE101 series peptides and T cell hybridomas and are incubated for 24 h. After that incubation, an aliquot of the culture supernatant is transferred to a second culture to measure T cell stimulation, as reflected in the effect of released interleukins on the growth of an interleukin-dependent, indicator cell line. During the 8 h incubation with native protein antigen, the protein antigen is taken into the APC. The native protein enters the processing pathway within the APC, where it is enzymatically cleaved to peptide fragments. Those peptide fragments with high affinity for the particular MHC class II molecules produced by the APC form antigenic peptide/MHC class II complexes which are transported to the cell surface. At the cell surface, the MHC class II molecules are contacted by the AE101 peptides, which cause the release of the antigenic peptide by the same mechanism proposed for the “peptide prepulse” assay above.
The “processed antigen assay” was carried out under essentially the same conditions as the “peptide prepulse assay”, with the following modifications. Untreated APC were incubated at 1×10^6/mL in 24-well plates (1 mL/well) with native protein antigen for 8 h. Following that incubation, the pulsed APC were washed, treated with mitomycin C, and washed again. AE101 series peptide was added at 64 μM, 16 μM, 4 μM, and 1 μM concentrations for 24 h in the presence of the T cell hybridoma specific for the antigenic peptide. Interleukin release from these cultures was measured by proliferation of HT-2 cells to interleukins in supernatants transferred from the primary culture. The baseline T cell response was measured by culturing T hybridoma cells with the native antigen-prepulsed APC in the absence of AE101 series peptides.
The “processed antigen assay” was carried out under essentially the same conditions as the “peptide prepulse” assay, with the following modifications. Untreated APC were incubated at 1×10^6/mL in 24-well plates (1 mL/well) with native protein antigen for 8 h. Following incubation, the pulsed APC were washed, treated with mitomycin C, and were washed again. The assay conditions were then as described for “peptide prepulse” above. The baseline T cell response was measured by culturing T hybridoma cells with the native antigen-prepulsed APC in the absence of AE101 peptides.
Table 2.9: Activities of substitution series at Leucine^80 in AE114 in a processed antigen assay. […] The results in this assay constitute, relatively, a mirror image of the result in the simultaneous assay (Example 1, Table 7) and parallel those of the antigenic peptide prepulse assay (Example 5, Table 24). Untreated APC were incubated with native HEL, instead of antigenic peptide, for 8 h. After incubation, the pulsed cells were washed and mitomycin C treated before being cocultured with AE-peptides and T cell hybridomas. Wells containing only T cells and native HEL-prepulsed APC were used to determine the Baseline response, or 1, in the absence of AE peptides. The concentration of AE peptide used was 64 μM for these assays. The supernatant dilutions used in the HT-2 cell assay were 1:4 (first value) and 1:8 (second value).

[1] = native HEL prepulse 10 μM, supernatant dilution 1:4
[2] = Table 30, native HEL prepulse 10 μM, supernatant dilution 1:8

## Ac-ARMKNPK-NH2 [AE345]
[1]
  T cell response relative to baseline (None = 1.00), E^d: 0.81

## Ac-L[Cit]NKLPK-NH2 [AE343]
[1]
  T cell response relative to baseline (None = 1.00), E^d: 0.69

## Ac-L[Cit]MKNPK-NH2 [AE342]
[1]
  T cell response relative to baseline (None = 1.00), E^d: 0.64

## Ac-LR (mL) KyPK-NH2 [AE304]
[2]
  T cell response relative to baseline (None = 1.0), E^d: 0.77

## Ac-LRMK F PK-NH2 (Ac-LRMKFPK-NH2) [AE234]
  T cell response relative to baseline (None = 1.0), 5 μM HEL E^d, first value: 0.51,
  T cell response relative to baseline (None = 1.0), 5 μM HEL E^d, second value: 0.62
Native HEL prepulse 10 μM
  T cell response relative to baseline (None = 1.0), 10 μM HEL E^d, first value: 0.65,
  T cell response relative to baseline (None = 1.0), 10 μM HEL E^d, second value: 0.60
Native HEL prepulse 20 μM
  T cell response relative to baseline (None = 1.0), 20 μM HEL E^d, first value: 0.98,
  T cell response relative to baseline (None = 1.0), 20 μM HEL E^d, second value: 0.88

## Ac-LRNKNPK-NH2 [AE349]
[1]
  T cell response relative to baseline (None = 1.00), E^d: 0.64

## Ac-LRMKLP F-NH2 (Ac-LRMKLPF-NH2) [AE248]
[1]
  T cell response relative to baseline (None = 1.00), E^d: 0.30

## Ac-LRMK N PK-NH2 (Ac-LRMKNPK-NH2) [AE232]
  T cell response relative to baseline (None = 1.0), 5 μM HEL E^d, first value: 0.50,
  T cell response relative to baseline (None = 1.0), 5 μM HEL E^d, second value: 0.50
Native HEL prepulse 10 μM
  T cell response relative to baseline (None = 1.0), 10 μM HEL E^d, first value: 0.68,
  T cell response relative to baseline (None = 1.0), 10 μM HEL E^d, second value: 0.61
Native HEL prepulse 20 μM
  T cell response relative to baseline (None = 1.0), 20 μM HEL E^d, first value: 0.97,
  T cell response relative to baseline (None = 1.0), 20 μM HEL E^d, second value: 0.83
[1]
  T cell response relative to baseline (None = 1.00), E^d: 0.46

## Ac-LR (mL) KYPK-NH2 [AE303]
[2]
  T cell response relative to baseline (None = 1.0), E^d: 0.82

## Ac-ARMKLPKSAK-NH2 [AE120]
[1]
  T cell response relative to baseline (None = 1.00), E^d: 0.51

## Ac-Y[hArg]MKLPKSAK-NH2 [AE132]
Table 32, native HEL prepulse 20 μM, supernatant dilution 1:4
  T cell response relative to baseline (None = 1.0), E^d: 0.48

## Ac-LR (mL) KYPk-NH2 [AE305]
[2]
  T cell response relative to baseline (None = 1.0), E^d: 0.70
